T1: CD27 expressed on the cell surface (HT1080_CD27 cells) (human, UniProt P26842 20-260)
T1 sequence (looked up): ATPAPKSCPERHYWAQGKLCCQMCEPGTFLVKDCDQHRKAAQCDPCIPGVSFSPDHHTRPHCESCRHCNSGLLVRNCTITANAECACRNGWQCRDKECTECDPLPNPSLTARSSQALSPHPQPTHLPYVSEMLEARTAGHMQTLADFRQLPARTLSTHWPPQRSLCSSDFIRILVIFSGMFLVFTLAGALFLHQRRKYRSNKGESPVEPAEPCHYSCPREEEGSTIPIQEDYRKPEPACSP

T2: CD27 protein (His-tagged, Sino Biological Inc. 10039-H08B1) (human, UniProt P26842 20-192)
T2 construct: bought; coated onto ELISA plates; also called human CD27; recombinant protein; not shown: His tag
T2 sequence (looked up): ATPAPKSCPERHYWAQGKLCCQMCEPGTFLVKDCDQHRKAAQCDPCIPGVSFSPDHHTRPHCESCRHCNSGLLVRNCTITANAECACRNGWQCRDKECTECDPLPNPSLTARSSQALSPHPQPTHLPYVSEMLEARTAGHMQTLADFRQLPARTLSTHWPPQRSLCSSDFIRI

B1: P018.S.06.A.C06 (antibody, V domains shown)
VH: QQQLEESGGGLVKPGGTLTLPCKASGFTISSDYDMCWVRQAPGKGLEWITCILGGSGGSTWYANWAKGRFTISQSSSTTVTLQMTSLTDADTATYFCTRASGFTYFELWGPGTLVTVSS
VL: AQVLTQTPSSVSAAVGGTVTINCQASQSVYNNKNLAWYQQKPGQPPKLLIYYASTLASGVSSRFKGSGSGTQFTLTISDVQSDDAATYYCQGEFSCSSSDCFAFGGGTEVVVK
notes: V regions on human Ig constant parts; also called AB27_102
B2: P018.S.04.A.D04 (antibody, V domains shown)
VH: QSVEESGGRLVTPGTPLTLTCTVSGIDLSSYSMTWVRQAPGKGLEWIGFINTGGRGYYASWAKGRFTISKTSTTVDLKITSPTTEDTATYFCARDAGSSRGYYRDLWGQGTLVTVSS
VL: AYDMTQTPASVSAAVGGTVTIKCQASEDIYSLLAWYQQKPGQPPKLLIYDASDLASGVPSRFSGSGSGTDYTLTISGVESADAATYYCQQGYTTSTTVDNIFGGGTEVVVK
notes: V regions on human Ig constant parts; also called AB27_72
B3: P018.S.02.A.A06 (antibody, V domains shown)
VH: QSVEESGGRLVKPDESLTLTCTVSGIDLSTYAMGWVRQAPGKGLEYIGMISTGGSAYYASWAQGRFTISRTSTTVDLKMTSLTTEDTATYFCARLRDPYSYRTYFNLWGPGTLVTVSS
VL: ALVMTQTPSSVEAAVGGTVTIKCQASLSISSALAWYQQKPGQRPKLLIYDASNLESGVPSRFKGSGSGAHFTLTVSDLESADAATYYCQGPYDTVNNNSFGGGTEVVVK
notes: V regions on human Ig constant parts; also called AB27_28
B4: P018.S.04.A.B05 (antibody, V domains shown)
VH: QSVEESGGRLVTPGTPLTLTCTASGFTLSSFYMSWVRQAPGKGLEWIGFIHGHGNTYYASWAKGRFTISKTSTTVDLKIASPTTEDTATYFCARGGHPNMDLWGQGTLVTISS
VL: DIVMTQTPSSVEAAVGGTVTIKCQASQNINNYLAWYQQKPGQPPKLLIYYASTLASGVSSRFKGSGSGTEFTLTISDLESDDAATYYCQCSYYDASIFGAFGGGTEVVVR
notes: V regions on human Ig constant parts; also called AB27_68
B5: P018.S.01.A.G03 (antibody, V domains shown)
VH: QSVEESGGRLVTPGTPLTLTCTVSGFSLSSYSMIWVRQAPGKGLEWIGIVYASGSTNYASWAKGRFTISKTSTTVDLKITSPTTEDTATYFCARGDVLYAFDPWGPGTLVTVSS
VL: AFELTQTPSSVSAAVGGTVTIKCQASENIYSYLAWYQQKPGQPPKRLIYYASNLASGVSSRFKGSGSGTEFTLTISDLESADAATYYCQYTYSTSPGYIFGGGTEVVVK
notes: V regions on human Ig constant parts; also called AB27_22
B6: P018.S.04.A.G04 (antibody, V domains shown)
VH: QSLEESGGRLVTPGTPLTLTCTASGFTISSHHVTWVRQAPGEGLEWIGVIYPSGTTYYASWAKGRFTISRTSTTVDLKMTSLTIEDTATYFCVRDVGYFTLWGQGTLVTVSS
VL: AQVLTQTPSPVSAAVGGTVTISCQSSQSVGGNNWLAWYQQKLGQPPKLLIYYASTLASGVPPRFSGSGSGTQFTLTISEVQSDDSATYYCQGYYSDVTNAFGGGTEVVVK
notes: V regions on human Ig constant parts; also called AB27_78
B7: P018.S.07.A.H02 (antibody, V domains shown)
VH: QEQLVESGGGLVQPEGSLTLTCKASGFDFSSDAMCWVRQAPGKGLEWIACIYVGSVGSSWYASWAKGRFTISKSSSTTVTLQVTSLTAADTATYFCARGENIAYFTFWGPGTLVTVSS
VL: DIMMTQTPASVSAAVGGTVTIKCQASQSINSWLSWYQQKPGQPPKLLIYKASTLASGVPSRFEGSGSGTEFTLTISDLESADAATYYCQGYYYYSSSNFASNAFGGGTEVVVK
notes: V regions on human Ig constant parts; also called AB27_131

The binders below were run against T1, CD27 expressed on the cell surface … (assay: cell-based or functional assay).
Further: test concentration or dose not given here.

Binder | IL-8, cross-linked by F(ab')2 fragment [abs. corr.] | IL-8 [abs. corr.]
B1 | 1.08 abs. corr. | 0.128 abs. corr.
B2 | 1.32 abs. corr. | 0.486 abs. corr.
B3 | 1.48 abs. corr. | 0.299 abs. corr.
B4 | 1.08 abs. corr. | 0.308 abs. corr.
B5 | 1.21 abs. corr. | -0.105 abs. corr.
B6 | 1.57 abs. corr. | 0.451 abs. corr.
B7 | 1.22 abs. corr. | 0.107 abs. corr.

Each binder was assayed against T1, CD27 expressed on the cell surface … (assay: cellular binding assay, HT1080_CD27 cells).

Binder | Cellular binding assay [RFU]
B1 | 379 RFU
B2 | 365 RFU
B3 | 293 RFU
B4 | 414 RFU
B5 | 358 RFU
B6 | 335 RFU
B7 | 283 RFU

Each binder was assayed against T2, CD27 protein (His-tagged, Sino …) (assay: ELISA on coated His-tagged CD27).

Binder | ELISA [abs. corr.]
B1 | 3.13 abs. corr.
B2 | 3.7 abs. corr.
B3 | 3.13 abs. corr.
B4 | 3.5 abs. corr.
B5 | 3.5 abs. corr.
B6 | 3.48 abs. corr.
B7 | 3.47 abs. corr.

Reference: patent publication US20210253725A1 (BIONTECH, published 2021)
